Assay results published in US20050227296A1, “Method for indentifying integrin antagonists” (The General Hospital Corporation, a Massachusetts …, priority 1988, published 2005).

Assays:
[1] = molecular target: T1, EAiC3b (erythrocytes coated with iC3b) (Homo sapiens, UniProt P01024); test: Erythrocyte binding assay, EAiC3b on immobilized proteins or peptides; conditions: 37° C., divalent cations
T1 construct: EAiC3b (erythrocytes coated with iC3b) were generated by treating EAC3b with purified human factors H and I; tissue Sigma Chemical Co. (C5-deficient human serum); host or cells: human serum C3 deposited on IgM-coated erythrocytes
Description: Erythrocytes (E) coated with rabbit anti-E IgM (EA) or C3b (EAC3b) were prepared as described by Dana et al. (J. Immunol. 73:153, 1984). EAiC3b (erythrocytes coated with iC3b) were generated by treating EAC3b with purified human factors H and I, or alternatively prepared from EA using C5-deficient human serum (Sigma Chemical Co., St. Louis, Mo.). EAiC3b cells were washed and stored in isotonic veronal-buffered saline (VBS^2+), pH 7.4, containing 0.15 mM calcium-1 mM magnesium (MgCl2+CaCl2) and 1 mg/ml Soybean Trypsin Inhibitor (STI; Worthington Biochemical Co., Freehold, N.J.) at 1.5×10^8 cells/ml. EA, EAC3b or EAiC3b were labeled with 5-(and-6)-carboxy fluorescein (Molecular Probes, Eugene, Oreg.) as described by Michishita et al. (Cell 72:857, 1993).
Immobilization of recombinant proteins and peptides: Purified recombinant A-domain was added to Immulon-2 96-well microtiter plates (Dynatech) overnight. Wells were then washed once with phosphate-buffered-saline, pH 7.4 without metals, and blocked with 1% BSA at room temperature (RT) for one hour, followed by two washings with buffer A (composed of 60% GVBS:VBS^2+ mixed in a 1:3 ratio; Arnaout et al., in Complement Receptor Type 3 at 602-615, Academic Press, FL) containing 1 mM MnCl2 or MgCl2+CaCl2. All the peptides were stocked at 1 mg/ml in water and similarly adsorbed to Immulon-2 96-well plates. Binding of the anti-CD11b mabs to the coated rA-domain was measured by ELISA and read using a plate reader (Molecular Dynamics).
Erythrocyte binding assays: Fluoresceinated EAiC3b, EAC3b or EA were resuspended to 1.5×10^8/ml in buffer A, and added […] to wells containing immobilized proteins or peptides in a total volume of […]. The plates were then briefly centrifuged to settle the erythrocytes, and allowed to incubate at 37° C. for 15 minutes in a humidified incubator with 5% CO2. For the inhibition studies, E were preincubated with each recombinant protein or pure peptide in the presence of 2% BSA for 5 minutes at RT and added to wells coated with immobilized protein or peptide without washing, unless otherwise indicated. At the end of the binding reactions, wells were washed, examined briefly by light microscopy then solubilized with 1% SDS-0.2 N NaOH. Fluorescence was quantified (excitatory wavelength, 490 nm, emission wavelength, 510 nm) using a SLM 8000 fluorometer (SLM Instruments, Urbana, Ill.). In experiments where the effects of individual divalent cations were measured, Ca^2+ and Mg^2+ were replaced with metal-free buffers or with buffers containing each cation at […], unless otherwise indicated. The effect of temperature was evaluated in the presence of 1 mM MnCl2 at 37° C. and at 4° C.

[2] = test system: biotinylated NIF binding to human neutrophils; test: Inhibition of biotinylated NIF binding to neutrophils; conditions: dose dependent
Description: 100 μg of rNIF were labeled with sulfo-NHS-Biotin as described above. rNIF binding to resting or stimulated human neutrophils (pretreated with 10^−6 M f-met-leu-phe, for 15 minutes at 37° C., then washed) was measured. Increasing amounts of biotinylated rNIF in the absence or presence of 100-fold molar excess of unlabeled rNIF were incubated on ice for one hour with 1×10^6 neutrophils in VBSG^++ in a total volume of […]. Cells were then washed and incubated with phycoerythrin-coupled avidin (Sigma Chemical Co.) under similar conditions, washed again, fixed in 1% paraformaldehyde in PBS, and analyzed using FACScan (Becton Dickinson Co., Mountain View, Calif.). Mean channel fluorescence for each sample was then expressed as a function of the amount of biotinylated rNIF used. Background binding of phycoerythrin-streptavidin alone to neutrophils was subtracted (2.8 fluorescent units). Specific binding was obtained by […], and the values plotted according to Scatchard (Ann. N.Y. Acad. Sci. 51:660, 1949). To determine the effect of unlabeled fluid-phase-r11bA or GST on rNIF binding to neutrophils, each was preincubated at varying concentrations with biotinylated rNIF (20 ng/ml, final concentration) for 15 minutes on ice before addition of the mixture to neutrophils. The effect of mAbs on biotinylated NIF binding to neutrophils was assessed by preincubating the neutrophils with 100 μg/ml of each mAb at 4° C. for 15 minutes before addition of biotinylated NIF (20 ng/ml). The incubation then continued for one hour, followed by processing of cells for FACS analysis as described below.

T1 sequence (P01024 749-1303 limits assumed): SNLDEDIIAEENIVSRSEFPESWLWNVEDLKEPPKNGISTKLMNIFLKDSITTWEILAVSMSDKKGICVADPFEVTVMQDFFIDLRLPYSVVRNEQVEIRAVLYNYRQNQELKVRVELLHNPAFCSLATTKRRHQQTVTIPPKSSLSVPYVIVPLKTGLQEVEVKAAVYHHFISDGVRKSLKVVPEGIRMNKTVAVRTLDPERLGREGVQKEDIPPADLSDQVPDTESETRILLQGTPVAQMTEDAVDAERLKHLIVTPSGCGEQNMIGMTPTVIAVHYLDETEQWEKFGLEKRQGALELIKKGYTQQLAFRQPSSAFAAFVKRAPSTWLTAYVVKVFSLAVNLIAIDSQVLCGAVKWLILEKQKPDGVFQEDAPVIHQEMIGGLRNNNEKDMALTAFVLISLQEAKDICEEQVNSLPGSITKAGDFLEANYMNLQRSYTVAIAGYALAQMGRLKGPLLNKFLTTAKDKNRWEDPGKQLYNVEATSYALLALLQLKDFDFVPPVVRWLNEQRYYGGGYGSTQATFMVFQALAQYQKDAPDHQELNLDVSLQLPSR
T1 sequence (P01024 23-667 partner limits assumed): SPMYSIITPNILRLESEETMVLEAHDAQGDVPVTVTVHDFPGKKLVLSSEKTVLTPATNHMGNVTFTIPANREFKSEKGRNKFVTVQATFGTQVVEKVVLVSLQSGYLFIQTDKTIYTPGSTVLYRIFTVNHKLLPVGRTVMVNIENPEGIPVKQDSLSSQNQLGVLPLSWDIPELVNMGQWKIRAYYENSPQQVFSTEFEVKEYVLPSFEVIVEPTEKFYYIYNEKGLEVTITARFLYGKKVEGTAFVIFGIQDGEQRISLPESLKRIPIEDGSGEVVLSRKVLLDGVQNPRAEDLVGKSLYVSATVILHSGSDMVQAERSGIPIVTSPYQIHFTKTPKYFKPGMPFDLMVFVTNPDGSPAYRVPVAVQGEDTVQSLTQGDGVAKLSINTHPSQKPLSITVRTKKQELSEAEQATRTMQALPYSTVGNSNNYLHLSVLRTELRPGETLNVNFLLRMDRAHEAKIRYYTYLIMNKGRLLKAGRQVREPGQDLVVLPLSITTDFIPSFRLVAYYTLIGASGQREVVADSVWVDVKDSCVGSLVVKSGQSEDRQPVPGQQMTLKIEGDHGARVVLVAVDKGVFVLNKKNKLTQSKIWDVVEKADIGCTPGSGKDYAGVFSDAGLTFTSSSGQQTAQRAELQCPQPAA
T1 sequence (P01024 1321-1663 partner limits assumed): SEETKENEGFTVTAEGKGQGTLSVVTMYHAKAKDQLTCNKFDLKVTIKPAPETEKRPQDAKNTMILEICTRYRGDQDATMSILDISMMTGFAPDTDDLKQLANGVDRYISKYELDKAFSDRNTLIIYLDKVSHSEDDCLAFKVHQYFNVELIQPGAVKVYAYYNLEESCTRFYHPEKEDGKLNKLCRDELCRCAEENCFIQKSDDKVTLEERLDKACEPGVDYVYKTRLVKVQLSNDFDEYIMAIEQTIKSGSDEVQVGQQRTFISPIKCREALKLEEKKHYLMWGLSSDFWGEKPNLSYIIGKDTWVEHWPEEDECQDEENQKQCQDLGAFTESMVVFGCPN

## GST: glutathione-S-transferase, fusion partner of r11bA, used as control [reference compound]
[1]
  direct binding of EAiC3b to immobilized protein or peptide: did not bind
[2]
  effect of fluid-phase protein on biotinylated rNIF binding to human neutrophils: not
